Reference: patent US20050095678A1

Target: rat α1B+β1b calcium channel (N-type calcium channel α1B subunit coexpressed with β1b subunit) (rat) (UniProt Q02294)
Test: cell-based or functional assay

Sequence of rat α1B+β1b calcium channel (N-type calcium channel α1B subunit coexpressed with β1b subunit) (rat) (Q02294 whole entry, chain 1 of 2): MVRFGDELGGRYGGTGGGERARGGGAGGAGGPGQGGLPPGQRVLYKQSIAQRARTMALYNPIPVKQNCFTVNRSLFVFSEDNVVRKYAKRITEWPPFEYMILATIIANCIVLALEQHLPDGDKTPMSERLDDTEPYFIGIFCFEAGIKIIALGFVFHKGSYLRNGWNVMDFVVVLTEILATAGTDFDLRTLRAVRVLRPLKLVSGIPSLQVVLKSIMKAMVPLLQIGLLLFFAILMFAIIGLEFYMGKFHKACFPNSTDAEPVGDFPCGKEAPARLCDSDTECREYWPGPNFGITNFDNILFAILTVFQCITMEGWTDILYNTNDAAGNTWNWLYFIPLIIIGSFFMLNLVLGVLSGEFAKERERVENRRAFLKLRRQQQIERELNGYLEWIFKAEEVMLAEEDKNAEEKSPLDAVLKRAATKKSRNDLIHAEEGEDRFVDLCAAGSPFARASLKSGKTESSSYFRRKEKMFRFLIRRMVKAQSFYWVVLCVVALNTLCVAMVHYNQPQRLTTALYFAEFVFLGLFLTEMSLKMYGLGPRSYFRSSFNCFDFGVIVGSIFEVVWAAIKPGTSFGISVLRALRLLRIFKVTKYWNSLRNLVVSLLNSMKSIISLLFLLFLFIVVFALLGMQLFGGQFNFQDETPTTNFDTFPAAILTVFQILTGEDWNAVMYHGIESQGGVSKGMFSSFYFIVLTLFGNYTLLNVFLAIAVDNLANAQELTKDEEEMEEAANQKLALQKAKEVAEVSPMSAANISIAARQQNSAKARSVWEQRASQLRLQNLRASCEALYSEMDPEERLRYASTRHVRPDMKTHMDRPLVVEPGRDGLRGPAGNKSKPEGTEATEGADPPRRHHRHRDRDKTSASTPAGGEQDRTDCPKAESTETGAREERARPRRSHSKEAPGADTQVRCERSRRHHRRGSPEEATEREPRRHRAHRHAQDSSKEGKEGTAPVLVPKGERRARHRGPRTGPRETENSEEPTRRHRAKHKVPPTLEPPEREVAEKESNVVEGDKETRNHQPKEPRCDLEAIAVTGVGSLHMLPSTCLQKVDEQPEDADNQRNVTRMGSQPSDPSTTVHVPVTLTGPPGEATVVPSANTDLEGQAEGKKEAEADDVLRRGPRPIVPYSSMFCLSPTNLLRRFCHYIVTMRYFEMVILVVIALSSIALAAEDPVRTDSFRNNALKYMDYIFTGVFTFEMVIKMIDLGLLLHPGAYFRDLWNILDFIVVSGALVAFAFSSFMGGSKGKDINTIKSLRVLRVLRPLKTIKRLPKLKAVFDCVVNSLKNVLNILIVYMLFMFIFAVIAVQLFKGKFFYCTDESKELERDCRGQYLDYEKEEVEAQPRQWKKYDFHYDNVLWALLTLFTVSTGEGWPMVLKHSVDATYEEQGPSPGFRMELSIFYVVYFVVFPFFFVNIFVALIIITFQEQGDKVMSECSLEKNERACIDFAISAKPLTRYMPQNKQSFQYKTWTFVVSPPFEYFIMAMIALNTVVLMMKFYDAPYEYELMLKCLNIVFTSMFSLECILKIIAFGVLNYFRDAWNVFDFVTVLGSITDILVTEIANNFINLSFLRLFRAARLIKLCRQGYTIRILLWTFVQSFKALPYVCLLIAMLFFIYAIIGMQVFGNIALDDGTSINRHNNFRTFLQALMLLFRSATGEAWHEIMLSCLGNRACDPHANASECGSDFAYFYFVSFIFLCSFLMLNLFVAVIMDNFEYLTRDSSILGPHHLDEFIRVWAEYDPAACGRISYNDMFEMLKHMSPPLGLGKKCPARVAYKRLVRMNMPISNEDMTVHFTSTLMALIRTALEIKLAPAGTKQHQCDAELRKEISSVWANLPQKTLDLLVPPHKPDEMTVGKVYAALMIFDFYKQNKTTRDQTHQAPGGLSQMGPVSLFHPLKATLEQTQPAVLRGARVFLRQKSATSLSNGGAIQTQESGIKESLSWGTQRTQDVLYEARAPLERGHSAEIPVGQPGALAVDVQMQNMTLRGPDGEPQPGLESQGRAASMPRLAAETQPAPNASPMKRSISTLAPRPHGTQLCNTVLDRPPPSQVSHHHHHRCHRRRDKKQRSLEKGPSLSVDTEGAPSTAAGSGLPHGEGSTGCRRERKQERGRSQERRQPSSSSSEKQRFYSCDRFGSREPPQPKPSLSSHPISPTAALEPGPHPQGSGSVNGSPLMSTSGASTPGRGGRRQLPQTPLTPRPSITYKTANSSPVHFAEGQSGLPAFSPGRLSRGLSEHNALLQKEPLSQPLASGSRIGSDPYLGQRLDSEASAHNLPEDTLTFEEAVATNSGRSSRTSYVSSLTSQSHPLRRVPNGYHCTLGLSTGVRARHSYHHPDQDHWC
Sequence of rat α1B+β1b calcium channel (N-type calcium channel α1B subunit coexpressed with β1b subunit) (rat) (P54283 whole entry, chain 2 of 2, further chain): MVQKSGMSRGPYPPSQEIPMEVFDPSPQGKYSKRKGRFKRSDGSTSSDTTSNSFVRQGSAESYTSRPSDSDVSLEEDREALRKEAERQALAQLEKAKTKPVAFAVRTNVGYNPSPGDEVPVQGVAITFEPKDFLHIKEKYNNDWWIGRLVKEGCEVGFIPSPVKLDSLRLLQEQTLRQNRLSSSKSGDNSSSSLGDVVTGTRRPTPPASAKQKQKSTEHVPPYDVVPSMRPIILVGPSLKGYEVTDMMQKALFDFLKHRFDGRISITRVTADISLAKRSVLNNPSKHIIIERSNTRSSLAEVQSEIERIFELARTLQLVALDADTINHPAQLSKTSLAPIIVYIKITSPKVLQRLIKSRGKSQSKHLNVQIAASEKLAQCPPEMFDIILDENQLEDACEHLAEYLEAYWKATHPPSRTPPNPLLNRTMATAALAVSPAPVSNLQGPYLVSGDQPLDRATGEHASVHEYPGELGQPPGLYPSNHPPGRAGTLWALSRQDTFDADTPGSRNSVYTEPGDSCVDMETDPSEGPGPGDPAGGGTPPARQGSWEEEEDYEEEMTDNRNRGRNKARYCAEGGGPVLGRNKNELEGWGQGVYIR

average current density (Ipeak/cell capacitance), whole-cell patch clamp, fold increase on coexpression: 4 fold
Substance: rat brain α2δ-2 calcium channel subunit (from UniProt Q8CFG6 19-1157)
